According to paper PMC3853298, “The Concave Face of Decorin Mediates Reversible Dimerization and Collagen Binding*” (The Journal of Biological Chemistry, 2013):
Numbering of substitutions follows the chain as printed. Numbers in names are those of the source.

B1: mouse decorin core protein, wild type (residues 45-354) (domain or fragment)
chain: APLALISMCPYRCQCHLRVVQCSDLGLDKVPWDFPPDTTLLDLQNNKITEIKEGAFKNLKDLHTLILVNNKISKISPEAFKPLVKLERLYLSKNQLKELPEKMPRTLQELRVHENEITKLRKSDFNGLNNVLVIELGGNPLKNSGIENGAFQGLKSLSYIRISDTNITAIPQGLPTSLTEVHLDGNKITKVDAPSLKGLINLSKLGLSFNSITVMENGSLANVPHLRELHLDNNKLLRVPAGLAQHKYIQVVYLHNNNISAVGQNDFCRAGHPSRKASYSAVSLYGNPVRYWEIFPNTFRCVYVRSAIQLGNYKAAA
modifications: N-linked glycans (four consensus sites for N-linked glycosylation)
notes: vector-encoded residues left at the N-terminus after cleavage of the BM-40 signal peptide; decorin, mouse, UniProt P28654, residues 45-354; the numbering includes the signal peptide; corresponds to the ordered residues of the bovine decorin core crystal structure; Core protein without the glycosaminoglycan attachment region; exists in a monomer-dimer equilibrium; also called WT; wild-type mouse …
B2: mouse decorin core protein R151E (residues 45-354) (domain or fragment)
chain: B1 chain with R111E
modifications: N-linked glycans (four consensus sites for N-linked glycosylation)
notes: vector-encoded residues left at the N-terminus after cleavage of the BM-40 signal peptide; decorin, mouse, UniProt P28654, residues 45-354; the numbering includes the signal peptide; R151E reverses a charge in LRR5; source: HEK293 c18 cells, episomally transfected (pCEP-Pu), secreted; purified from conditioned medium (HisTrap, Superdex 200); not shown: His6, C-terminal, kept
B3: mouse decorin core protein Y51A/R52A/Q54A (residues 45-354) (domain or fragment)
chain: B1 chain with Y11A, R12A, Q14A
modifications: N-linked glycans (four consensus sites for N-linked glycosylation)
notes: vector-encoded residues left at the N-terminus after cleavage of the BM-40 signal peptide; decorin, mouse, UniProt P28654, residues 45-354; the numbering includes the signal peptide; triple mutation in the N-terminal cap; also called Y51A/R52A/Q54 mutant; source: HEK293 c18 cells, episomally transfected (pCEP-Pu), secreted; purified from conditioned medium (HisTrap, Superdex 200); not shown: …

Biological target: the molecule itself
Experiment: AUC; sedimentation velocity, 20 °C, 40,000 rpm, PBS, 0.028 (0.77 uM) to 3.4 mg/ml (94 uM); c(s) peaks of monomer and dimer integrated and fitted to a monomer-dimer equilibrium; dimer to monomers

Q: B1 was tested. Which Kd did it give?
A: Its Kd is 1370 ± 300 nM.

Q: B2 was tested. Which Kd did it give?
A: The Kd was 470 ± 90 nM.

Q: For B3, which Kd is on record?
A: Its Kd is 2300 ± 800 nM.

Biological target: the molecule itself
Experiment: SEC-MALS; injected at 3 mg/ml (83 uM) onto Superdex 200 10/30, TBS (20 mM Tris, 150 mM NaCl, pH 7.5), 0.2 ml/min; three-detector method for the polypeptide mass

Q: With B1 as the protein, how does the “stoichiometry N” value read?
A: The value was 2.

Q: Which “stoichiometry N” value does the source give for B2 here?
A: Its value is 2.

Q: Which “stoichiometry N” value does the source give for B3 here?
A: The value was 2.
